The values below come from PMC2575790.

For the assay, the target named is GST–α-adaptin ear (UniProt P17427). Put plainly: pull-down.
GST–α-adaptin ear, sequence (P17427 whole entry): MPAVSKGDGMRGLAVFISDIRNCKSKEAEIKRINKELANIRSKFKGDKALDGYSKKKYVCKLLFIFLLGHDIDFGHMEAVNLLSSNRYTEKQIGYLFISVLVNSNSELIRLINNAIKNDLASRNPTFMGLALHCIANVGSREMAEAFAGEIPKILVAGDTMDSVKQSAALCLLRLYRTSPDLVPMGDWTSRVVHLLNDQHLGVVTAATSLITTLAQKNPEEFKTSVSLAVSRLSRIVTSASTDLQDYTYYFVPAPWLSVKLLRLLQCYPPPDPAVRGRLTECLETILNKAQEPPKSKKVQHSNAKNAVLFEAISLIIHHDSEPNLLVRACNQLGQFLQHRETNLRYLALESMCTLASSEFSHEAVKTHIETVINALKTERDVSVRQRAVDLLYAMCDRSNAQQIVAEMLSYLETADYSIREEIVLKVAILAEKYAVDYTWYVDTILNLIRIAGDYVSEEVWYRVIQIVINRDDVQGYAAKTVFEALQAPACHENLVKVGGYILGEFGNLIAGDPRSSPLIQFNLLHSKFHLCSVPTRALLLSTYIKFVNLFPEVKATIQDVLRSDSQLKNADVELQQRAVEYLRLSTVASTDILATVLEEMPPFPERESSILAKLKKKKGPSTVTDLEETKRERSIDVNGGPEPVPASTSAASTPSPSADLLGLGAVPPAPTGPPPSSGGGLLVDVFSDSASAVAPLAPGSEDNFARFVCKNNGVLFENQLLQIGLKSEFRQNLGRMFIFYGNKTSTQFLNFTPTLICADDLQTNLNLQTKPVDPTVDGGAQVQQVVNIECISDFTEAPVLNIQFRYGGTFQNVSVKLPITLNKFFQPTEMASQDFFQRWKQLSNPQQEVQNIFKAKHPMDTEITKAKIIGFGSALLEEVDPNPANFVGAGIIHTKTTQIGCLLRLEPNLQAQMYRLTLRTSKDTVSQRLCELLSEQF

HA–hRME-6^wt (human RME-6, full length) (natural protein), sequence (Q14C86 whole entry): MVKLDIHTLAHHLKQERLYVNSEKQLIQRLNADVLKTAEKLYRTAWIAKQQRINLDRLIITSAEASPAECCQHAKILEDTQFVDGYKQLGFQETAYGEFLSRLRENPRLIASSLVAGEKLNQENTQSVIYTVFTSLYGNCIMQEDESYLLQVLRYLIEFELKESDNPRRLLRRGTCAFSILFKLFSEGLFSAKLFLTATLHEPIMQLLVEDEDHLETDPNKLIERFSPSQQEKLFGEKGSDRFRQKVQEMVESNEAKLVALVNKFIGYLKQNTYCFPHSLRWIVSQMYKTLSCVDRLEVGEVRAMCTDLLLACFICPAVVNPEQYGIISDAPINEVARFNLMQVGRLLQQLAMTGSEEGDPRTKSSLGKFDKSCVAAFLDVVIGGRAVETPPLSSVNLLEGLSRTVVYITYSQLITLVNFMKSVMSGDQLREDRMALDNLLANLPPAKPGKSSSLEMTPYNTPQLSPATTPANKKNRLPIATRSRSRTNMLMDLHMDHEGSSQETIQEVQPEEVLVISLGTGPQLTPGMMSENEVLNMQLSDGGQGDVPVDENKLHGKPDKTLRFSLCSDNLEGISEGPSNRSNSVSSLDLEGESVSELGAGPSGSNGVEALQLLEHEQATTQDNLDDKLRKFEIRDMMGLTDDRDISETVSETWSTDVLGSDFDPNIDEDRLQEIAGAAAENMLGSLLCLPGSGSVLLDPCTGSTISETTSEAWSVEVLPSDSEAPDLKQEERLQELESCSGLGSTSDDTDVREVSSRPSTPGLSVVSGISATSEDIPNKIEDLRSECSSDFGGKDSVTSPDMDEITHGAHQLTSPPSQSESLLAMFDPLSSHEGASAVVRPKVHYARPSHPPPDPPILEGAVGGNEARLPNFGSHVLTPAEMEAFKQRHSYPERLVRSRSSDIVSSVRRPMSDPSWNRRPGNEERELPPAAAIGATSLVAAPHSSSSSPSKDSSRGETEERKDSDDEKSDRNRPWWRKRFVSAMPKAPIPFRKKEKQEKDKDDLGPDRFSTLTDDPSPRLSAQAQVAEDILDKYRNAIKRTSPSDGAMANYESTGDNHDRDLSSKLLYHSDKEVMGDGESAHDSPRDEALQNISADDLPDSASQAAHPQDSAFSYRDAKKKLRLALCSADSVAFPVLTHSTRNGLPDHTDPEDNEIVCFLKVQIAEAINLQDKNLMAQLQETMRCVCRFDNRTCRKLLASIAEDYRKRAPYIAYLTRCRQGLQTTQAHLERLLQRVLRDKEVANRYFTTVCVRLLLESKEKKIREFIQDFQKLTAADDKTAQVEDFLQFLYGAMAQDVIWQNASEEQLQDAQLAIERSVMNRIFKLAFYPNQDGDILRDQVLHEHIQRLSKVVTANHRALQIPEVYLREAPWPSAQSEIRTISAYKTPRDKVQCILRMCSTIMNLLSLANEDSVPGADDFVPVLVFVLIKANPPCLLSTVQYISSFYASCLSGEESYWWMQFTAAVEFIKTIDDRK

As for HA–hRME-6^F1487A (natural protein), the fold reduction of binding against hRME-6^wt came out at 5 fold.
For “HA–hRME-6^wt (human RME-6, full length) (natural protein)”, the fold reduction of binding against hRME-6 from mock-treated cytosol is > 2 fold.
